# According to doi:10.1101/2025.07.24.666444:
# Assays:
# [1] = target: AtPCO4 Y73R (Arabidopsis thaliana); assay: other fluorescence titration
# [2] = target: AtPCO4 D177E (Arabidopsis thaliana); assay: other fluorescence titration
# [3] = target: AtPCO4 Y183F (Arabidopsis thaliana); assay: other fluorescence titration
# [4] = target: AtPCO4 C173A (Arabidopsis thaliana); assay: other fluorescence titration
# [5] = target: AtPCO4 Y73R (Arabidopsis thaliana)
# [6] = target: AtPCO4 Y183F (Arabidopsis thaliana)
# [7] = target: AtPCO4 S107L (Arabidopsis thaliana)
# [8] = target: AtPCO4 V105G (Arabidopsis thaliana)
substance,measurement,setting,value
RAP2.12_(2-15) peptide substrate (from UniProt Q9SSA8 2-15),Kd,[1],3 mM
same,Kd,[2],0.15 mM
same,Kd,[3],3.5 mM
same,Kd,[4],0.25 mM
same,catalytic constant (kcat) of RAP2.12 (2-15) oxidation,[5],0.0167 s⁻¹
same,catalytic constant (kcat) of RAP2.12 (2-15) oxidation,[6],0.5 s⁻¹
same,Michaelis-Menten constant (KM) for RAP2.12 (2-15) in the activity assay,[7],99 µM
same,Michaelis-Menten constant (KM) for RAP2.12 (2-15) in the activity assay,[8],97 µM
